Target: the molecule itself
Assay: crystal structure

B1: Sulfolobus solfataricus MCM protein N-terminal domain (residues 1–268) (domain or fragment, UniProt Q9UXG1 1-268, looked up)
chain: MEIPSKQIDYRDVFIEFLTTFKGNNNQNKYIERINELVAYRKKSLIIEFSDVLSFNENLAYEIINNTKIILPILEGALYDHILQLDPTYQRDIEKVHVRIVGIPRVIELRKIRSTDIGKLITIDGILVKVTPVKERIYKATYKHIHPDCMQEFEWPEDEEMPEVLEMPTICPKCGKPGQFRLIPEKTKLIDWQKAVIQERPEEVPSGQLPRQLEIILEDDLVDSARPGDRVKVTGILDIKQDSPVKRGSRAVFDIYMKVSSIEVSQKV
With B1 the “stoichiometry N” value was 6.
